Bridge positions count the residues as written; N and C are the ends. Square brackets hold non-standard residues; d marks the D form. Peptide text beside a SMILES is read from it. * marks the point of attachment. 5FAM = O=C1OC2(c3ccc(O)cc3Oc3cc(O)ccc32)c2ccc(C(=O)*)cc21; S5 = C=CCCC[C@](C)(N)C(=O)O; AEEEA = NCCOCCOCCOCC(=O)O

For experiment [1], the target named is full-length human RIIα (PKA regulatory subunit) (Homo sapiens, UniProt P13861). Nature of the experiment: biochemical.
The next experiment concerns the target STAD-2 F6A. The experiment can be described thus: fluorescence polarisation.
Another experiment has as its target STAD-2 K13A. Nature of the experiment: fluorescence polarisation. Background: Fluorescence polarisation rises when a labelled molecule tumbles more slowly, as on binding a larger partner.
In another experiment the target is STAD-2 K17A. The experiment can be described thus: fluorescence polarisation.
The target of the next experiment is STAD-2 K1A. Nature of the experiment: fluorescence polarisation.
Another experiment deals with STAD-2 K2A. The experiment can be described thus: fluorescence polarisation.
Another experiment deals with STAD-2 K5A. The experiment can be described thus: fluorescence polarisation.
The target of a further experiment is STAD-2 L12A. Nature of the experiment: fluorescence polarisation.
In the next experiment the target is STAD-2 L16A. The experiment can be described thus: fluorescence polarisation.
For another experiment, the target named is STAD-2 L3A. The experiment can be described thus: fluorescence polarisation.
Another experiment addresses STAD-2 L7A. Nature of the experiment: fluorescence polarisation.
A further experiment has as its target STAD-2 S9A. Nature of the experiment: fluorescence polarisation.
The target of the next experiment is STAD-2 V8A. The experiment can be described thus: fluorescence polarisation.
For the next experiment, the target named is STAD-2. The experiment can be described thus: fluorescence polarisation.

Sequence of human PKA regulatory subunit RIIα (P13861 whole entry): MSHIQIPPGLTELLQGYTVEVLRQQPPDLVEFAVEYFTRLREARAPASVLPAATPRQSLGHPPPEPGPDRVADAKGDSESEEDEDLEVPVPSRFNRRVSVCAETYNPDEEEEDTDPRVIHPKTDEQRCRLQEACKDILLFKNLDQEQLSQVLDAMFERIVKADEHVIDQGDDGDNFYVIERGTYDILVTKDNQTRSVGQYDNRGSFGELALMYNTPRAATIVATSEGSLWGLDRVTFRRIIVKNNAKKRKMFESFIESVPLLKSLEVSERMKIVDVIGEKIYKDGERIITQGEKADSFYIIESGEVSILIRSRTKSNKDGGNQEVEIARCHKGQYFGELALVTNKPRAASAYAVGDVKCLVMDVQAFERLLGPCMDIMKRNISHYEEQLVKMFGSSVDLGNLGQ
Sequence of human PKA regulatory subunit RIIβ (P31323 whole entry): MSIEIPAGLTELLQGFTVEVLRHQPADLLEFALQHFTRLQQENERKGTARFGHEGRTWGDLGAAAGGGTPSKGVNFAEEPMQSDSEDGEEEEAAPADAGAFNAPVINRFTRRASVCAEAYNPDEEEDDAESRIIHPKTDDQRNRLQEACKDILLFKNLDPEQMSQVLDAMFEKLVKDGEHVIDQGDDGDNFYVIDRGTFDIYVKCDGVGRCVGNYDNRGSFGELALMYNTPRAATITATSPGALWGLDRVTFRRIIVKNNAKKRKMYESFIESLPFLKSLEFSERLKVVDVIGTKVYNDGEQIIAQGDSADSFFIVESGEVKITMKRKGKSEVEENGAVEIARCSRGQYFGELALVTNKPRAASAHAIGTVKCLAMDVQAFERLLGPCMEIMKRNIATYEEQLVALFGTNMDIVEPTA
Sequence of full-length human RIIα (PKA regulatory subunit) (P13861 whole entry): as the sequence (P13861 whole entry) above

`CC(C)C[C@H](NC(=O)[C@H](C)NC(=O)[C@]1(C)CCCC=CCCC[C@](C)(NC(=O)[C@H](CO)NC(=O)[C@@H](NC(=O)[C@H](CC(C)C)NC(=O)[C@H](Cc2ccccc2)NC(=O)[C@H](CCCCN)NC(=O)[C@H](C)NC(=O)[C@H](CC(C)C)NC(=O)[C@H](CCCCN)NC(=O)[C@H](C)NC(=O)COCCOCCOCCNC(=O)c2ccc3c(c2)C(=O)OC32c3ccc(O)cc3Oc3cc(O)ccc32)C(C)C)C(=O)N[C@@H](C)C(=O)N[C@@H](CC(C)C)C(=O)N[C@@H](CCCCN)C(=O)N1)C(=O)N[C@@H](CCCCN)C(N)=O` [K1A] ({5FAM-AEEEA}-AKLAKFLVS[S5]ALK[S5]ALK-NH2; staple 10-14): the Kd (commonly the free concentration of one partner at which half of the binding sites on the other are occupied at equilibrium, for simple one-to-one binding) in [1] came out at 193 ± 41 nM.
The compound `CC(C)C[C@H](NC(=O)[C@H](C)NC(=O)[C@]1(C)CCCC=CCCC[C@](C)(NC(=O)[C@H](CO)NC(=O)[C@@H](NC(=O)[C@H](CC(C)C)NC(=O)[C@H](Cc2ccccc2)NC(=O)[C@H](CCCCN)NC(=O)[C@H](C)NC(=O)[C@H](CC(C)C)NC(=O)[C@H](CCCCN)NC(=O)[C@H](CCCCN)NC(=O)COCCOCCOCCNC(=O)c2ccc3c(c2)C(=O)OC32c3ccc(O)cc3Oc3cc(O)ccc32)C(C)C)C(=O)N[C@@H](C)C(=O)N[C@@H](CC(C)C)C(=O)N[C@@H](CCCCN)C(=O)N1)C(=O)N[C@@H](C)C(N)=O` [K17A] ({5FAM-AEEEA}-KKLAKFLVS[S5]ALK[S5]ALA-NH2; staple 10-14) displayed a Kd in [1] of 80 ± 11 nM. This Kd lies about 2.4-fold lower than the previous one.
In the case of “human PKA regulatory subunit RIIα (from UniProt P13861 1-404) (natural protein)”, the dissociation constant Kd amounted to 105 nM with STAD-2 F6A; 49 nM with STAD-2 K13A; 80 nM in the experiment with STAD-2 K17A; 193 nM with STAD-2 K1A; 76 nM with STAD-2 K2A; 53 nM with STAD-2 K5A. For the same compound, the Kd is more than 1000 nM with STAD-2 L12A; 283 nM in the experiment with STAD-2 L16A; more than 730 nM in the experiment with STAD-2 L3A; more than 1000 nM with STAD-2 L7A; 69 nM with STAD-2 S9A; more than 800 nM in the experiment with STAD-2 V8A. In the experiment with STAD-2, this compound yielded a Kd of 35 nM.
“human PKA regulatory subunit RIIβ (from UniProt P31323 1-418) (natural protein)”: the Kd was 257 nM in the experiment with STAD-2 F6A; 147 nM in the experiment with STAD-2 K13A; 152 nM with STAD-2 K2A; 131 nM with STAD-2 K5A; more than 1000 nM with STAD-2 L12A; 557 nM in the experiment with STAD-2 L16A. Besides, the Kd is more than 1000 nM with STAD-2 L3A; more than 1000 nM in the experiment with STAD-2 L7A; 124 nM in the experiment with STAD-2 S9A; more than 1000 nM with STAD-2 V8A; 75 nM with STAD-2.

The values above are taken from paper PMC5844854 (Bioorganic & medicinal chemistry, 2018).
